Molecular target: T1, TNFR1 (Homo sapiens, UniProt P19438)
T1 chain: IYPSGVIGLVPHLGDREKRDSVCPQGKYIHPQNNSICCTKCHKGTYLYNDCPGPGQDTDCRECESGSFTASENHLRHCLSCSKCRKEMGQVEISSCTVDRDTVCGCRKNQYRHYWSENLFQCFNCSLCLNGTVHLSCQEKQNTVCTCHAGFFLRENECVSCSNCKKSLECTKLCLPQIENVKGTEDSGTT
Assay: yeast display SC50

Binder | apparent Kd (screen)
R21F (designed binder) MTLQELLREEALRRAEAEAFFYALELLAEKFPEQKEYLLDLAEEIESQIRSLSGVDVEDVRKFLDKEWAWVKELLAEHPAELAEVEAARAARLAELRAEVEAKVAA | 0.49 nM
G54Y (designed binder) MTLQELLREEALRRAEAEAFRYALELLAEKFPEQKEYLLDLAEEIESQIRSLSYVDVEDVRKFLDKEWAWVKELLAEHPAELAEVEAARAARLAELRAEVEAKVAA | 2.73 nM
V104R (designed binder) MTLQELLREEALRRAEAEAFRYALELLAEKFPEQKEYLLDLAEEIESQIRSLSGVDVEDVRKFLDKEWAWVKELLAEHPAELAEVEAARAARLAELRAEVEAKRAA | 0.718 nM
E25W (designed binder) MTLQELLREEALRRAEAEAFRYALWLLAEKFPEQKEYLLDLAEEIESQIRSLSGVDVEDVRKFLDKEWAWVKELLAEHPAELAEVEAARAARLAELRAEVEAKVAA | 1.16 nM
E77V (designed binder) MTLQELLREEALRRAEAEAFRYALELLAEKFPEQKEYLLDLAEEIESQIRSLSGVDVEDVRKFLDKEWAWVKELLAVHPAELAEVEAARAARLAELRAEVEAKVAA | 0.593 nM
E99P (designed binder) MTLQELLREEALRRAEAEAFRYALELLAEKFPEQKEYLLDLAEEIESQIRSLSGVDVEDVRKFLDKEWAWVKELLAEHPAELAEVEAARAARLAELRAPVEAKVAA | 1.16 nM
P79H (designed binder) MTLQELLREEALRRAEAEAFRYALELLAEKFPEQKEYLLDLAEEIESQIRSLSGVDVEDVRKFLDKEWAWVKELLAEHHAELAEVEAARAARLAELRAEVEAKVAA | 0.49 nM
A94G (designed binder) MTLQELLREEALRRAEAEAFRYALELLAEKFPEQKEYLLDLAEEIESQIRSLSGVDVEDVRKFLDKEWAWVKELLAEHPAELAEVEAARAARLGELRAEVEAKVAA | 0.539 nM
A106L (designed binder) MTLQELLREEALRRAEAEAFRYALELLAEKFPEQKEYLLDLAEEIESQIRSLSGVDVEDVRKFLDKEWAWVKELLAEHPAELAEVEAARAARLAELRAEVEAKVAL | 0.539 nM
E16K (designed binder) MTLQELLREEALRRAKAEAFRYALELLAEKFPEQKEYLLDLAEEIESQIRSLSGVDVEDVRKFLDKEWAWVKELLAEHPAELAEVEAARAARLAELRAEVEAKVAA | 5.31 nM
E86Y (designed binder) MTLQELLREEALRRAEAEAFRYALELLAEKFPEQKEYLLDLAEEIESQIRSLSGVDVEDVRKFLDKEWAWVKELLAEHPAELAEVYAARAARLAELRAEVEAKVAA | 2.05 nM
E99G (designed binder) MTLQELLREEALRRAEAEAFRYALELLAEKFPEQKEYLLDLAEEIESQIRSLSGVDVEDVRKFLDKEWAWVKELLAEHPAELAEVEAARAARLAELRAGVEAKVAA | 0.539 nM
A11M (designed binder) MTLQELLREEMLRRAEAEAFRYALELLAEKFPEQKEYLLDLAEEIESQIRSLSGVDVEDVRKFLDKEWAWVKELLAEHPAELAEVEAARAARLAELRAEVEAKVAA | 1.27 nM
T2S (designed binder) MSLQELLREEALRRAEAEAFRYALELLAEKFPEQKEYLLDLAEEIESQIRSLSGVDVEDVRKFLDKEWAWVKELLAEHPAELAEVEAARAARLAELRAEVEAKVAA | 0.653 nM
H78I (designed binder) MTLQELLREEALRRAEAEAFRYALELLAEKFPEQKEYLLDLAEEIESQIRSLSGVDVEDVRKFLDKEWAWVKELLAEIPAELAEVEAARAARLAELRAEVEAKVAA | 1.16 nM
E77P (designed binder) MTLQELLREEALRRAEAEAFRYALELLAEKFPEQKEYLLDLAEEIESQIRSLSGVDVEDVRKFLDKEWAWVKELLAPHPAELAEVEAARAARLAELRAEVEAKVAA | 0.405 nM
V100G (designed binder) MTLQELLREEALRRAEAEAFRYALELLAEKFPEQKEYLLDLAEEIESQIRSLSGVDVEDVRKFLDKEWAWVKELLAEHPAELAEVEAARAARLAELRAEGEAKVAA | 0.718 nM
S53W (designed binder) MTLQELLREEALRRAEAEAFRYALELLAEKFPEQKEYLLDLAEEIESQIRSLWGVDVEDVRKFLDKEWAWVKELLAEHPAELAEVEAARAARLAELRAEVEAKVAA | 13.8 nM

Binder | apparent Kd (screen)
P32D (designed binder) MTLQELLREEALRRAEAEAFRYALELLAEKFDEQKEYLLDLAEEIESQIRSLSGVDVEDVRKFLDKEWAWVKELLAEHPAELAEVEAARAARLAELRAEVEAKVAA | 0.869 nM
A106D (designed binder) MTLQELLREEALRRAEAEAFRYALELLAEKFPEQKEYLLDLAEEIESQIRSLSGVDVEDVRKFLDKEWAWVKELLAEHPAELAEVEAARAARLAELRAEVEAKVAD | 1.05 nM
V104S (designed binder) MTLQELLREEALRRAEAEAFRYALELLAEKFPEQKEYLLDLAEEIESQIRSLSGVDVEDVRKFLDKEWAWVKELLAEHPAELAEVEAARAARLAELRAEVEAKSAA | 0.869 nM
I45V (designed binder) MTLQELLREEALRRAEAEAFRYALELLAEKFPEQKEYLLDLAEEVESQIRSLSGVDVEDVRKFLDKEWAWVKELLAEHPAELAEVEAARAARLAELRAEVEAKVAA | 0.593 nM
A106G (designed binder) MTLQELLREEALRRAEAEAFRYALELLAEKFPEQKEYLLDLAEEIESQIRSLSGVDVEDVRKFLDKEWAWVKELLAEHPAELAEVEAARAARLAELRAEVEAKVAG | 0.956 nM
E81G (designed binder) MTLQELLREEALRRAEAEAFRYALELLAEKFPEQKEYLLDLAEEIESQIRSLSGVDVEDVRKFLDKEWAWVKELLAEHPAGLAEVEAARAARLAELRAEVEAKVAA | 0.539 nM
E5L (designed binder) MTLQLLLREEALRRAEAEAFRYALELLAEKFPEQKEYLLDLAEEIESQIRSLSGVDVEDVRKFLDKEWAWVKELLAEHPAELAEVEAARAARLAELRAEVEAKVAA | 0.718 nM
A28T (designed binder) MTLQELLREEALRRAEAEAFRYALELLTEKFPEQKEYLLDLAEEIESQIRSLSGVDVEDVRKFLDKEWAWVKELLAEHPAELAEVEAARAARLAELRAEVEAKVAA | 1.27 nM
L82V (designed binder) MTLQELLREEALRRAEAEAFRYALELLAEKFPEQKEYLLDLAEEIESQIRSLSGVDVEDVRKFLDKEWAWVKELLAEHPAEVAEVEAARAARLAELRAEVEAKVAA | 0.49 nM
V104Y (designed binder) MTLQELLREEALRRAEAEAFRYALELLAEKFPEQKEYLLDLAEEIESQIRSLSGVDVEDVRKFLDKEWAWVKELLAEHPAELAEVEAARAARLAELRAEVEAKYAA | 0.593 nM
Y37V (designed binder) MTLQELLREEALRRAEAEAFRYALELLAEKFPEQKEVLLDLAEEIESQIRSLSGVDVEDVRKFLDKEWAWVKELLAEHPAELAEVEAARAARLAELRAEVEAKVAA | 24.4 nM
F20A (designed binder) MTLQELLREEALRRAEAEAARYALELLAEKFPEQKEYLLDLAEEIESQIRSLSGVDVEDVRKFLDKEWAWVKELLAEHPAELAEVEAARAARLAELRAEVEAKVAA | 2.05 nM
A11E (designed binder) MTLQELLREEELRRAEAEAFRYALELLAEKFPEQKEYLLDLAEEIESQIRSLSGVDVEDVRKFLDKEWAWVKELLAEHPAELAEVEAARAARLAELRAEVEAKVAA | 0.446 nM
D59N (designed binder) MTLQELLREEALRRAEAEAFRYALELLAEKFPEQKEYLLDLAEEIESQIRSLSGVDVENVRKFLDKEWAWVKELLAEHPAELAEVEAARAARLAELRAEVEAKVAA | 0.653 nM
E84K (designed binder) MTLQELLREEALRRAEAEAFRYALELLAEKFPEQKEYLLDLAEEIESQIRSLSGVDVEDVRKFLDKEWAWVKELLAEHPAELAKVEAARAARLAELRAEVEAKVAA | 0.869 nM
E9T (designed binder) MTLQELLRTEALRRAEAEAFRYALELLAEKFPEQKEYLLDLAEEIESQIRSLSGVDVEDVRKFLDKEWAWVKELLAEHPAELAEVEAARAARLAELRAEVEAKVAA | 0.956 nM
A42G (designed binder) MTLQELLREEALRRAEAEAFRYALELLAEKFPEQKEYLLDLGEEIESQIRSLSGVDVEDVRKFLDKEWAWVKELLAEHPAELAEVEAARAARLAELRAEVEAKVAA | 0.49 nM
